Data as given in patent publication US20200317817A1 (XOMA US, published 2020).
Substitutions are numbered along the chain they refer to. Each block holds one binder with its values, some of them ahead of it.

Assays:
[1] = target: T1, human PTH1R overexpressed on CHO cells (human, UniProt Q03431 27-593); test: cell-based or functional assay
T1 sequence (looked up): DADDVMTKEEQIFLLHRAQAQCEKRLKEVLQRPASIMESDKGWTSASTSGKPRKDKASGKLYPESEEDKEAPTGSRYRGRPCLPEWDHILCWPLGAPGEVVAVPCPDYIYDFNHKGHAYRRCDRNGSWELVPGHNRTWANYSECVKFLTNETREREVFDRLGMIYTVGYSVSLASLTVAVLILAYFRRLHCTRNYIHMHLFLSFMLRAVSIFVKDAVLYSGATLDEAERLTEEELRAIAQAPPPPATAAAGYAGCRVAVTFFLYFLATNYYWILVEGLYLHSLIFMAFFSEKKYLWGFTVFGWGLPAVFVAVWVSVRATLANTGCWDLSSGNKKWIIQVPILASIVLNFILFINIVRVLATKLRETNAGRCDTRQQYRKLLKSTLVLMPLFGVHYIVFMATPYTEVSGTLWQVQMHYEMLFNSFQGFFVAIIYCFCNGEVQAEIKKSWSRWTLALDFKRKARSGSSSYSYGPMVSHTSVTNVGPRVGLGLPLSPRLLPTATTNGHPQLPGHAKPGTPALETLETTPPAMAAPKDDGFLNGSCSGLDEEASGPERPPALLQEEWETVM

[2] = target: T2, mouse PTH1R overexpressed on CHO cells (mouse, UniProt P41593 27-591); test: cell-based or functional assay
T2 sequence (looked up): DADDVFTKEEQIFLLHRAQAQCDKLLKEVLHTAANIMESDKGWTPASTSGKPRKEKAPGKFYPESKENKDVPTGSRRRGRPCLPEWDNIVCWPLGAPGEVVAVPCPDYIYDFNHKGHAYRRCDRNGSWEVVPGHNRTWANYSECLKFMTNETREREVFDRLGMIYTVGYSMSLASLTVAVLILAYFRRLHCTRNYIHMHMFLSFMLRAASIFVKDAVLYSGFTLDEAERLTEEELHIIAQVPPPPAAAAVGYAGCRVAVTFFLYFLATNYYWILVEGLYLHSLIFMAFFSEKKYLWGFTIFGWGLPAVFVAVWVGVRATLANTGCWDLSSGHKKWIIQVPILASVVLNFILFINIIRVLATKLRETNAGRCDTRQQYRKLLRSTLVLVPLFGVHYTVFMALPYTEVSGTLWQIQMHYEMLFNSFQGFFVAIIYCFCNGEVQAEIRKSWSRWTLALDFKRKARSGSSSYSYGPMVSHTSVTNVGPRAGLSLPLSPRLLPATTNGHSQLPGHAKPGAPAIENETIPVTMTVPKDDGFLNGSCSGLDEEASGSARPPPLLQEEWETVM

[3] = target: T3, rat PTH1R on UMR106 cells (rat, UniProt P25961 27-591); test: cell-based or functional assay
T3 sequence (looked up): T2 sequence (looked up) with P58S, L497P, I518T, N520T, I523L, T528A

[4] = target: T4, human PTH1R on Saos-2 cells (endogenous) (human, UniProt Q03431 27-593); test: cell-based or functional assay
T4 sequence (looked up): T1 sequence (looked up)

[5] = target: T1, human PTH1R overexpressed on CHO cells; test: flow cytometry on CHO cells, 24 hr at 4 C
Description: (§1) To characterize antibody binding to PTH1R, cells were labeled with either CellTrace™ CFSE or CellTrace™ Violet. Unlabeled CHOK1 parent, CHO human PTH1R labeled with CellTrace™CFSE, and CHO mouse PTH1R labeled with CellTrace™Violet were pooled together and stained with increasing concentrations of antibody. Antibodies were incubated for 24 hr at 4° C. followed by two washes with FACS Buffer (0.5% BSA, 0.1% NaN3 in DPBS). Cells were then incubated with Allophycocyanin (APC) AffiniPure F(ab′)₂ Fragment Goat Anti-Human IgG (H+L) (Jackson ImmunoResearch, West Grove, Pa.) for 20 minutes at 4° C. Followed by two washes, cells were resuspended in FACS Buffer. Samples were acquired using BD Cytometer (BD Biosciences, San Jose, Calif.) and data were analyzed using FlowJo (FlowJo, LLC, Ashland, Oreg.) and Prism (GraphPad Software, La Jolla, Calif.).

[6] = target: T2, mouse PTH1R overexpressed on CHO cells; test: flow cytometry on CHO cells, 24 hr at 4 C
Description: as §1

[7] = target: T1, human PTH1R overexpressed on CHO cells; test: flow cytometry on CHO cells, antibody alone
Description: as §1

[8] = target: T2, mouse PTH1R overexpressed on CHO cells; test: flow cytometry on CHO cells, antibody alone
Description: as §1

[9] = target: T1, human PTH1R overexpressed on CHO cells; test: flow cytometry on CHO cells, with 3 uM PTHrP as competitor
Description: as §1

[10] = target: T2, mouse PTH1R overexpressed on CHO cells; test: as above
Description: as §1

EC50 of PTH(1-34), cAMP assay, with 267 nM IgG [1]: 0.404 nM | EC50 of PTH(1-34), cAMP assay, with 267 nM IgG [2]: 2.15 nM | EC50 of PTH(1-34), cAMP assay, with 267 nM IgG [3]: 13.7 nM | EC50 of PTH(1-34), cAMP assay, with 267 nM IgG [4]: 38.1 nM | EC50 of PTHrP(1-34), cAMP assay, with 267 nM IgG [4]: 63 nM | EC50 [5]: 0.202 nM | EC50 [6]: 0.343 nM | EC50 [7]: 0.196 nM | EC50 [8]: 0.337 nM | EC50 [9]: 1.11 nM | EC50 [10]: 14.5 nM
B1: XPA.85.341 (antibody, V domains shown)
VH: EVQLVETGGGVVRPGGSLRLSCAASGFTFSSSAMSWVRQTPGKELQWVSAITPGGEGTYYADVVKGRFTISRDNSKDTLYLQMDSLRAEDTAVYYCARDLYGSYGDAFDIWGQGTLVTVSS
VL: SYELTQPSSVSVSPGQTASITCSGDKLGEKYASWYQQKPGQSPVLVMFEDTKRPSGIPERFSGSNSGNTATLTISGTQAEDEADYYCQAWDSSWVFGGGTQLTVL
notes: Light-chain-shuffled variant of XPA.85.017

EC50 of PTH(1-34), cAMP assay, with 267 nM IgG [1]: 0.908 nM | EC50 of PTHrP(1-34), cAMP assay, with 267 nM IgG [1]: 52.7 nM | fold-shift in PTH(1-34) EC50 vs vehicle only, cAMP assay [1]: 29 fold | fold-shift in PTHrP(1-34) EC50 vs vehicle only, cAMP assay [1]: > 100 fold | EC50 of PTH(1-34), cAMP assay, with 267 nM IgG [2]: 13.6 nM | EC50 of PTHrP(1-34), cAMP assay, with 267 nM IgG [2]: 5.77 nM | fold-shift in PTH(1-34) EC50 vs vehicle only, cAMP assay [2]: > 100 fold | fold-shift in PTHrP(1-34) EC50 vs vehicle only, cAMP assay [2]: > 100 fold | EC50 of PTH(1-34), cAMP assay, with 267 nM IgG [3]: 66.7 nM | EC50 of PTHrP(1-34), cAMP assay, with 267 nM IgG [3]: 11.6 nM | fold-shift in PTH(1-34) EC50 vs vehicle only, cAMP assay [3]: > 100 fold | fold-shift in PTHrP(1-34) EC50 vs vehicle only, cAMP assay [3]: 35 fold | EC50 of PTH(1-34), cAMP assay, with 267 nM IgG [4]: 78.6 nM | EC50 of PTHrP(1-34), cAMP assay, with 267 nM IgG [4]: 62.2 nM | fold-shift in PTH(1-34) EC50 vs vehicle only, cAMP assay [4]: > 100 fold | fold-shift in PTHrP(1-34) EC50 vs vehicle only, cAMP assay [4]: 89 fold | EC50 [5]: 0.044 nM | EC50 [6]: 0.216 nM | EC50 [7]: 0.0909 nM | EC50 [8]: 0.281 nM | EC50 [9]: 0.304 nM | EC50 [10]: 1.51 nM
B2: XPA.85.287 (antibody, V domains shown)
VH: B1 VH
VL: SYVLTQPPSVSVAPGQTARITCSGDKLGDRYVSWYQQKPGQSPVLVMFEDTGRPAGIPERFSGSNSGNTATLTISGTQAEDEADYYCQAWGTSWVFGGGTQLTVL
notes: also called Ab287

EC50 of PTH(1-34), cAMP assay, with 267 nM IgG [1]: 0.613 nM | EC50 of PTH(1-34), cAMP assay, with 267 nM IgG [2]: 1.95 nM | EC50 of PTH(1-34), cAMP assay, with 267 nM IgG [3]: 7.9 nM | EC50 of PTHrP(1-34), cAMP assay, with 267 nM IgG [3]: 3.48 nM | EC50 of PTH(1-34), cAMP assay, with 267 nM IgG [4]: 24.8 nM | EC50 of PTHrP(1-34), cAMP assay, with 267 nM IgG [4]: 31.4 nM | EC50 [5]: 0.142 nM | EC50 [6]: 0.234 nM | EC50 [7]: 0.0984 nM | EC50 [8]: 0.258 nM | EC50 [9]: 0.479 nM | EC50 [10]: 18.7 nM
B3: XPA.85.339 (antibody, V domains shown)
VH: B1 VH
VL: SYELTQPPSVSVAPGQTATITCSGDRLGDKFISWYQQKPGQSPLLVIFEDNERPSRIPERFSGSNSGNSATLTISGTQAVDEADYYCQAWDSSWVFGGGTQLTVL
notes: as for B1
